This is an account of results in publication PMC7608914.

The target in the experiment is Alexa488-labeled Nuc165 (human). In words: fluorescence polarisation; HPF1 titrated from 16.8 μM to 0 μM into 5 nM Alexa488-labeled Nuc165; 50 mM Tris-HCl pH 8, 50 mM NaCl, 1 mM MgCl2, 0.1 mM EDTA, 0.1 mM TCEP, 0.01% NP-40; Hill model.

B1: Histone PARylation Factor 1 (natural protein)
chain: MVGGGGKRRPGGEGPQCEKTTDVKKSKFCEADVSSDLRKEVENHYKLSLPEDFYHFWKFCEELDPEKPSDSLSASLGLQLVGPYDILAGKHKTKKKSTGLNFNLHWRFYYDPPEFQTIIIGDNKTQYHMGYFRDSPDEFPVYVGINEAKKNCIIVPNGDNVFAAVKLFLTKKLREITDKKKINLLKNIDEKLTEAARELGYSLEQRTVKMKQRDKKVVTKTFHGAGLVVPVDKNDVGYRELPETDADLKRICKTIVEAASDEERLKAFAPIQEMMTFVQFANDECDYGMGLELGMDLFCYGSHYFHKVAGQLLPLAYNLLKRNLFAEIIEEHLANRSQENIDQLAA
For the molecule B1, the dissociation constant Kd was 1.45 µM.
